Data set [1] has as its target T1, PFV-1 IN (integrase) (PFV-1, UniProt P14350 752-1143). Put plainly: SPR imaging; 4 nM IN, monophasic; 5 uM dsDNA spots; ka 3.7e6 M-1s-1, kd 1.8e-3 s-1; text prints 4.9e-9 M but the rates give 4.9e-10; 10 mM MgCl2; 20 mM Hepes pH 8, 10 mM MgCl2, 100 mM NaCl, 25 ul/min; EG4-pretreated gold SPRi surface; temperature not given. To be noted: protein: recombinant; label: none (immobilized on gold via 5' thiol); 5' overhang 5 nt (T5 spacer) on strand 1, other end blunt.

Data set [2] has as its target T1, PFV-1 IN (integrase). Put plainly: SPR imaging; KD1, fast phase of two-phase fit; 200 nM IN; ka1 2.2e5 M-1s-1, kd1 5.8e-3 s-1; 10 mM MgCl2; 20 mM Hepes pH 8, 10 mM MgCl2, 100 mM NaCl, 25 ul/min; EG4-pretreated gold SPRi surface; temperature not given. To be noted: protein: recombinant; label: none (immobilized on gold via 5' thiol); 5' overhang 5 nt (T5 spacer) on strand 1, other end blunt.

B1: SH-5T-dsDNA (random 38 bp) (dsDNA)
DNA 1: TTTTTCTAAGCTAGAAGATTACTCCAAGTACATAATCTAAAAT
DNA 2: ATTTTAGATTATGTACTTGGAGTAATCTTCTAGCTTAG
modifications: 5' thiol-C6 on strand 1
As a reminder, the Kd is the concentration at which binding is half-saturated. In the case of B1, the figures for the Kd with PFV-1 IN (integrase) [1] and with PFV-1 IN (integrase) [2] were 0.49 nM and 26 nM, respectively.

These data come from article PMC3440434, “Efficient Antifouling Surface for Quantitative Surface Plasmon Resonance Based Biosensor Analysis”.
